± gives the uncertainty stated by the source.

This note sets out measurements from the supplement of paper PMC12042874.

This data set in a line: amyloid nucleation score (Sup35N fusion, yeast selection) (log enrichment); library NNK3; higher = more nucleation; inactive = no reads after selection. In a few lines:
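Peptides of 20 random codons fused to Sup35N were expressed in psi-negative yeast, induced 24 hours with 100 μM copper sulfate, then grown 7 days at 30°C on medium lacking adenine and uracil. Input and output plasmid inserts were Illumina-sequenced. Nucleation score is the DiMSum log enrichment of output over input reads, centred on the mode score of non-aggregating sequences, excluding sequences with under 100 input reads. Random libraries had three technical output replicates.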
Take IRIKVRLHVSIYFNIFR: the amyloid nucleation score result was “inactive”.

Regarding DFVTHWSVAMLMI, the amyloid nucleation score result was “inactive”.

For the substance ESIYVNPGDSL, the amyloid nucleation score entry is “inactive”.

As to FTMNQGSDVEVFLSSMF, the amyloid nucleation score result is “inactive”.

Regarding IHIFTLKYKVRARKLATTIS, the amyloid nucleation score entry is “inactive”.

As for GMFMCMKMVFFLKWYINLYF, the amyloid nucleation score result is “inactive”.

On to MHLLLQRIWVLQAK, for which the amyloid nucleation score entry is “inactive”.

Take PIIHGCDDLRDFFIARICIS: the amyloid nucleation score entry was “inactive”.

Turning to LALFVSCICVIVSELFFTMN, the amyloid nucleation score result was “inactive”.

As to LCDSGWELMYKLCTDKDMIL, the amyloid nucleation score result is “inactive”.

As for VCYLFWDVWVFLGEVTANT, the amyloid nucleation score result is “inactive”.

Take FRACIVLYNTVHVVHFNISR: the amyloid nucleation score was found to be 0.565 ± 0.46.

For the substance GVLLNTSELGSNGMDSKTLD, the amyloid nucleation score result was “inactive”.

The substance ANCSWWSWESMNCCYIGWIF had an amyloid nucleation score of 1.54 ± 0.071.

Take LVVGVFKGSRSYVFK: the amyloid nucleation score entry was “inactive”.

For the substance EFFAPSVTDQMLTFRLLYKT, the amyloid nucleation score was 0.821 ± 0.26.

For WEILYPEGWFWTFRRSGVGS, the amyloid nucleation score entry is “inactive”.

As for RSSVLLS, the amyloid nucleation score entry was “inactive”.

In the case of IGSAVIWVFFCNGSGVGDGT, the amyloid nucleation score was determined as 2.08 ± 0.09.

Regarding YGAMSAGDMETY, the amyloid nucleation score entry was “inactive”.

On to YVAIMLAKSKTRS, for which the amyloid nucleation score result was “inactive”.

Consider FELVIYQIVRIIVRSLADIS, for which the amyloid nucleation score result was “inactive”.

Consider FSGRYGTRLPLYSGRFKWFI, for which the amyloid nucleation score result is “inactive”.

HGTIVIDYRHSPW registered an amyloid nucleation score of 1.07 ± 0.1.

In the case of KCVWWCTNWLNVKWVYSTRC, the amyloid nucleation score result is “inactive”.

Turning to FMPHARASQQLPGGSHFLNL, the amyloid nucleation score entry is “inactive”.

With LVTSNNMSAGRYNMCLRVLS, the amyloid nucleation score entry is “inactive”.

Consider IFSNRGFQLCWFSYMLSVHT, for which the amyloid nucleation score result is “inactive”.

Consider LNYNF, for which the amyloid nucleation score result was “inactive”.

Turning to AAYADR, the amyloid nucleation score stood at 0.008 ± 0.48.

On to YFIVSWFFQNCFR, for which the amyloid nucleation score was determined as 1.19 ± 0.12.

Take MLFVEFSMGSHCRET: the amyloid nucleation score was 1.53 ± 0.1.

LARRRSTCDICWLSYKATDL: the amyloid nucleation score result was “inactive”.

As to VCMFEFMDKFWNFVVTAEQC, the amyloid nucleation score result was “inactive”.

For the substance HHYCRGSICESVSQMYWISW, the amyloid nucleation score entry is “inactive”.

On to FVTIRGVRRTCNPFKGINYG, for which the amyloid nucleation score entry is “inactive”.

On to SAPNYVRSSLFCN, for which the amyloid nucleation score entry was “inactive”.

Take PEGVSGIAE: the amyloid nucleation score result was “inactive”.

As for CACIPNFPCKSYHYWRSCNI, the amyloid nucleation score result is “inactive”.

FCRLGIRSVFIYFKVTSLIV gave an amyloid nucleation score of 0.049 ± 0.47.

Regarding SCKGNVFVSSGWEFGAYFTG, the amyloid nucleation score came out at 0.751 ± 0.23.

In the case of SEVTSRNHTGYSRSRLLGMY, the amyloid nucleation score entry was “inactive”.

As to IYWLSTYRCIKSYSMST, the amyloid nucleation score entry was “inactive”.

Turning to IQTSNTHVVLVFFGRILRIC, the amyloid nucleation score result was “inactive”.

Regarding HASMQFWKVDNSFNALMRLG, the amyloid nucleation score was found to be 0.398 ± 0.18.

With CNYNTTM, the amyloid nucleation score entry was “inactive”.

Regarding YPDNIFFCQSN, the amyloid nucleation score entry is “inactive”.

Regarding YGNEFEDNPSMATTTDQRAR, the amyloid nucleation score stood at 0.468 ± 0.22.

Turning to VFHHIILRFN, the amyloid nucleation score entry was “inactive”.

DRCWMCLEAALQVAACVGSG: the amyloid nucleation score result is “inactive”.

For the substance TLGLRADRYKLLYFFEGFLI, the amyloid nucleation score result is “inactive”.

With TIGEKHCCWSLCIEETLVCD, the amyloid nucleation score entry was “inactive”.

Regarding LVMLMYVVPGFVGGDFTGDF, the amyloid nucleation score entry is “inactive”.

Consider NGLPVLLEEDLS, for which the amyloid nucleation score result is “inactive”.

In the case of SNSYHIVVYVRYGHSHG, the amyloid nucleation score is 2.62 ± 0.083.

With IERSDSVSWRGVLVGIEMKV, the amyloid nucleation score entry is “inactive”.

With WHSYTKLCGRTSPPSSTLTG, the amyloid nucleation score entry was “inactive”.

Consider LHSFLRCDCSIARF, for which the amyloid nucleation score entry is “inactive”.

Consider IDSNGYVLLVRDGREKVVRC, for which the amyloid nucleation score amounted to 0.204 ± 0.29.

As for YICNY, the amyloid nucleation score result was “inactive”.

The substance AVRVEVLGLWYHLKCCWCFL registered an amyloid nucleation score of -0.755 ± 1.9.

As to CDAAWPVNSPFWYLFLWC, the amyloid nucleation score result is “inactive”.

SDTSSCCYTCVYISYVDHFF gave an amyloid nucleation score of 2.41 ± 0.052.

TQLRTVCSTW: the amyloid nucleation score entry is “inactive”.

In the case of GCHFLH, the amyloid nucleation score entry is “inactive”.

Consider TMKGTSKVSLLVSSGASRMG, for which the amyloid nucleation score entry is “inactive”.

Regarding VSRHKFFRHSCAN, the amyloid nucleation score entry is “inactive”.

The substance IELVFAHVYCGMRWNSEASR gave an amyloid nucleation score of 1.4 ± 0.084.

As to CIRPVLSHSYEIKNTGLGRT, the amyloid nucleation score result is “inactive”.

Regarding YHWSS, the amyloid nucleation score entry is “inactive”.

On to TFLVTRVPYSFF, for which the amyloid nucleation score entry is “inactive”.

As to FLNTLFYHMGT, the amyloid nucleation score result was “inactive”.

With ICWLVMEVLG, the amyloid nucleation score entry was “inactive”.

For the substance WAGGSDPRCNFKCLCVKGFC, the amyloid nucleation score entry is “inactive”.

For the substance ARLSEAVLGNVSDIGRVCNL, the amyloid nucleation score result is “inactive”.

Take PLCATFKDTNRNNTVYRSLF: the amyloid nucleation score result is “inactive”.

Turning to NSNCYPLVI, the amyloid nucleation score result is “inactive”.

As to LFRDKDVDVVSSN, the amyloid nucleation score entry was “inactive”.

ALGIICVGLAFDGSLDLTS had an amyloid nucleation score of 1.25 ± 0.15.

Turning to PTEVYEATYCHFTNLL, the amyloid nucleation score result was “inactive”.

RLSLFRGKCRVYYYTGSIQV: the amyloid nucleation score result is “inactive”.

On to MYKFCSY, for which the amyloid nucleation score result was “inactive”.

Substance MFNFEFLC registered an amyloid nucleation score of 2.33 ± 0.085.

In the case of MELYPLLVGNFSIQKKVECN, the amyloid nucleation score result was “inactive”.

On to NEMQQYSHAPSPSVVWNAGF, for which the amyloid nucleation score result is “inactive”.

For YDGVNKLRSVCCVESSDFGL, the amyloid nucleation score result was “inactive”.

The substance LLLVKSTI came in with an amyloid nucleation score of -0.176 ± 0.56.

As to CHGCMRLLSDGLKDEWYMIF, the amyloid nucleation score result was “inactive”.

Take ALVCYK: the amyloid nucleation score result was “inactive”.

Substance RVGRSR displayed an amyloid nucleation score of -0.176 ± 1.4.

Take CDIRFIYESYVSDNDGVLLH: the amyloid nucleation score result was “inactive”.

PQDQDDVKVLSRGVRYVWGH: the amyloid nucleation score entry was “inactive”.

Take YFMVEVMLILMSDGAFYTFC: the amyloid nucleation score entry was “inactive”.

Regarding ASRKVTRVVMHINLRLWYET, the amyloid nucleation score result is “inactive”.

As for HLKSVGVVYDWMSQWSLWCR, the amyloid nucleation score entry was “inactive”.

Take FFRTGFLVGNSSEYYMQY: the amyloid nucleation score is 0.215 ± 0.46.

In the case of FLFVCLSLIALTGADSLVQA, the amyloid nucleation score entry was “inactive”.

Take DKYFVAASWFRWVLVYMGWS: the amyloid nucleation score entry is “inactive”.

For the substance KLKVVVIKNICFG, the amyloid nucleation score turned out to be 1.82 ± 0.083.

For the substance SNWKGEISIHEGMLGCT, the amyloid nucleation score result is “inactive”.

In the case of GSYSGM, the amyloid nucleation score result is “inactive”.

Consider RDDNAKNVGSPRAAHTRALR, for which the amyloid nucleation score result is “inactive”.

QIIYISSLFTYDSYYKFRLH: the amyloid nucleation score entry is “inactive”.

As for TFCFLQVN, the amyloid nucleation score entry is “inactive”.

For GCNRVIYKRI, the amyloid nucleation score was -0.609 ± 1.2.

As for AIIVQLIDLLMRPARPVFVE, the amyloid nucleation score entry was “inactive”.

Turning to GKKLDMYHIRHSRW, the amyloid nucleation score entry was “inactive”.

For VPDRCLD, the amyloid nucleation score result was “inactive”.

On to HYYVSTDLWSIMMYTILRPC, for which the amyloid nucleation score entry is “inactive”.

Regarding ANKSCGHVDWDIGESYMARL, the amyloid nucleation score entry was “inactive”.

Take MYREFYLNDQFNRPFPQSMD: the amyloid nucleation score result was “inactive”.

For GSSRQNY, the amyloid nucleation score entry is “inactive”.

With YSCTFYTLCPENI, the amyloid nucleation score is 1.85 ± 0.07.

For AYCGACFNLSAYTSKCLELM, the amyloid nucleation score entry is “inactive”.

For the substance HLSFDIVV, the amyloid nucleation score result is “inactive”.

HVDPCWQKTFTMMLFWVFLR: the amyloid nucleation score result is “inactive”.

For LVLMVSQGSYFTTI, the amyloid nucleation score was -0.474 ± 0.57.

As to QLLSLVKISNKLTVI, the amyloid nucleation score entry was “inactive”.

With IVFRLANKPRRANRC, the amyloid nucleation score result was “inactive”.

With ISIFSIRNMVYNLQVRLVLE, the amyloid nucleation score entry is “inactive”.

As to CTRSVSILESLRDSNTSLSQ, the amyloid nucleation score entry was “inactive”.

As for SLSNSVWINFARNGLSSLCQ, the amyloid nucleation score entry was “inactive”.

As to YCETSLLCCCSIPWYLNCIE, the amyloid nucleation score entry was “inactive”.

Substance FYLYLDHVKVNWSRS gave an amyloid nucleation score of 0.989 ± 0.15.

On to QTVKVISPYPTMLTLCD, for which the amyloid nucleation score result is “inactive”.

As to NELCLVMIKKDVSMRVWLES, the amyloid nucleation score entry is “inactive”.

On to RKSIGSLG, for which the amyloid nucleation score result was “inactive”.

With LLMGSSSSV, the amyloid nucleation score result is “inactive”.

For the substance CSLCYETGSICVVSRGEDGL, the amyloid nucleation score result is “inactive”.

Substance SFGAKCARGQDSTASVFNNG yielded an amyloid nucleation score of -0.33 ± 1.1.

In the case of SLVPDNAANAMRPTWINLWW, the amyloid nucleation score is 1.84 ± 0.078.

Turning to IVVFYAFEVFVGEGGKTRVP, the amyloid nucleation score result was “inactive”.
